The results in this text go back to IntAct's records for PubMed 35512704.

B1: Speckle-type POZ protein (Homo sapiens), O43791 (parent)
chain: MSRVPSPPPPAEMSSGPVAESWCYTQIKVVKFSYMWTINNFSFCREEMGEVIKSSTFSSGANDKLKWCLRVNPKGLDEESKDYLSLYLLLVSCPKSEVRAKFKFSILNAKGEETKAMESQRAYRFVQGKDWGFKKFIRRDFLLDEANGLLPDDKLTLFCEVSVVQDSVNISGQNTMNMVKVPECRLADELGGLWENSRFTDCCLCVAGQEFQAHKAILAARSPVFSAMFEHEMEESKKNRVEINDVEPEVFKEMMCFIYTGKAPNLDKMADDLLAAADKYALERLKVMCEDALCSNLSVENAAEILILADLHSADQLKTQAVDFINYHASDVLETSGWKSMVVSHPHLVAEAYRSLASAQCPFLGPPRKRLKQS
partner: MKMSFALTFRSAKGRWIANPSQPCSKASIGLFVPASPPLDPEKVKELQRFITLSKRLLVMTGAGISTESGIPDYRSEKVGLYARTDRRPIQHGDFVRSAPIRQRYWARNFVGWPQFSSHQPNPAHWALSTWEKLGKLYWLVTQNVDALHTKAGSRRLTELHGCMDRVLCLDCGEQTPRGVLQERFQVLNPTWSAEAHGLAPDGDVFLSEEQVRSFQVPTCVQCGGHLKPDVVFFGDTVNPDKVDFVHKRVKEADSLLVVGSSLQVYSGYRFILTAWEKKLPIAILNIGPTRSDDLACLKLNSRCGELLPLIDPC
B2: Speckle-type POZ protein (Homo sapiens), O43791 (parent)
chain: B1 chain
partner: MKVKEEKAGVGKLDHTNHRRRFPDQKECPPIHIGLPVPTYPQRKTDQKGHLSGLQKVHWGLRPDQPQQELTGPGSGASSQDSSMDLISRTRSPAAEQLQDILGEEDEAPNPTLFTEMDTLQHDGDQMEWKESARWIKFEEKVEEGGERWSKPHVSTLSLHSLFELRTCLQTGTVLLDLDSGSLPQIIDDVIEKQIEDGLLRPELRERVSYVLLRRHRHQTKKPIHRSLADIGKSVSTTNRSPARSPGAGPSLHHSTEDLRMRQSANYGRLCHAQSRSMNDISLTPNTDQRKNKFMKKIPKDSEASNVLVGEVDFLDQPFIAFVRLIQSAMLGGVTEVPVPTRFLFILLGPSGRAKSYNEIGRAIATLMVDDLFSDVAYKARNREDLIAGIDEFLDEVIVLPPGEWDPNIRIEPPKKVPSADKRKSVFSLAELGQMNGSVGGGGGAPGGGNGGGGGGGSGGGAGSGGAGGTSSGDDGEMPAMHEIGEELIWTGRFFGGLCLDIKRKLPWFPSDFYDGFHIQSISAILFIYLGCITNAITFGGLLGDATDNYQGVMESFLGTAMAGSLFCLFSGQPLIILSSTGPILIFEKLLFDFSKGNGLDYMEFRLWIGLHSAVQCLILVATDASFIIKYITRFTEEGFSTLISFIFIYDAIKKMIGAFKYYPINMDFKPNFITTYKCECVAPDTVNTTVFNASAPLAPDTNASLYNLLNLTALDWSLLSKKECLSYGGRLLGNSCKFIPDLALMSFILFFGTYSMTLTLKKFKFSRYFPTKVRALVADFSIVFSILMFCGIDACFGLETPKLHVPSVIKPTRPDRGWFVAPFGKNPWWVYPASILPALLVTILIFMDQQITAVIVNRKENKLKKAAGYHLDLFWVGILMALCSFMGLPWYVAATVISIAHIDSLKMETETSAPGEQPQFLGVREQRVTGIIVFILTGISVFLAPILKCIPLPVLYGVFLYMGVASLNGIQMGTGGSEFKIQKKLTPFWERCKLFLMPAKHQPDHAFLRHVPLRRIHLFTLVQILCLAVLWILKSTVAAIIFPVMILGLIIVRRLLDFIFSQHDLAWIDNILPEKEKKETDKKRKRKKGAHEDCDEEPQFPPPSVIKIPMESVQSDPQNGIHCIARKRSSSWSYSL
B3: Speckle-type POZ protein (Homo sapiens), O43791 (parent)
chain: B1 chain
partner: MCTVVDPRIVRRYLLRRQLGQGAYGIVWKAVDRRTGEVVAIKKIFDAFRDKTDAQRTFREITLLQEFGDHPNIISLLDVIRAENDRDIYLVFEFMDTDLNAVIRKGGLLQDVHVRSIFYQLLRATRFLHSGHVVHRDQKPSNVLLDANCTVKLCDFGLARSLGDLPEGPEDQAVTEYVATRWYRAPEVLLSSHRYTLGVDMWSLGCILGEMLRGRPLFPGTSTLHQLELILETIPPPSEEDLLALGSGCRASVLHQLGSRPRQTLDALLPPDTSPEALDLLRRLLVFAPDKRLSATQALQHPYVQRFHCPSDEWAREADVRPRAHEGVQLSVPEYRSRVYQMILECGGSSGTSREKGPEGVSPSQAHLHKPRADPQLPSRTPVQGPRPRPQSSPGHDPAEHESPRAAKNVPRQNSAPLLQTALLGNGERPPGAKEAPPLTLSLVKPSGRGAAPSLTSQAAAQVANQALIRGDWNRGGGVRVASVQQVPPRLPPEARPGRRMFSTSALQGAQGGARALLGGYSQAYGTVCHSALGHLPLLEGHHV
B4: Speckle-type POZ protein (Homo sapiens), O43791 (parent)
chain: B1 chain
partner: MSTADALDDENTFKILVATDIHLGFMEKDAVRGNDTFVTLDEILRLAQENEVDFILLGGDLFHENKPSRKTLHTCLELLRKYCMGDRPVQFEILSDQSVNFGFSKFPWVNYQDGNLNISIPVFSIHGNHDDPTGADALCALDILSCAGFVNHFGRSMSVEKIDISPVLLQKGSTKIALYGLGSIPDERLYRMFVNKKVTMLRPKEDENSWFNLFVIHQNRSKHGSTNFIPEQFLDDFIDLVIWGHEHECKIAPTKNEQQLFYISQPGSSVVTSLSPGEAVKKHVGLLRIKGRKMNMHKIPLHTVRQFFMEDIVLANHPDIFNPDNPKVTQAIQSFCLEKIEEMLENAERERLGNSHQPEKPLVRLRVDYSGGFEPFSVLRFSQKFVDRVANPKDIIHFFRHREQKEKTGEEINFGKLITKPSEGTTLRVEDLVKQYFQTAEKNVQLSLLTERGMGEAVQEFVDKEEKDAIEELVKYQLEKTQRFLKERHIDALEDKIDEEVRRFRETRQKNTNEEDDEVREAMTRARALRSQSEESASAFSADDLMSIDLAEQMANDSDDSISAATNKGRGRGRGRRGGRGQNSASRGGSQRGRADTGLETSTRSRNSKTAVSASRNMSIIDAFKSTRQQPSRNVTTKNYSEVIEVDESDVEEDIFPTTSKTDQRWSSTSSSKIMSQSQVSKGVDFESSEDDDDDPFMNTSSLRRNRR
B5: Speckle-type POZ protein (Homo sapiens), O43791 (parent)
chain: B1 chain
partner: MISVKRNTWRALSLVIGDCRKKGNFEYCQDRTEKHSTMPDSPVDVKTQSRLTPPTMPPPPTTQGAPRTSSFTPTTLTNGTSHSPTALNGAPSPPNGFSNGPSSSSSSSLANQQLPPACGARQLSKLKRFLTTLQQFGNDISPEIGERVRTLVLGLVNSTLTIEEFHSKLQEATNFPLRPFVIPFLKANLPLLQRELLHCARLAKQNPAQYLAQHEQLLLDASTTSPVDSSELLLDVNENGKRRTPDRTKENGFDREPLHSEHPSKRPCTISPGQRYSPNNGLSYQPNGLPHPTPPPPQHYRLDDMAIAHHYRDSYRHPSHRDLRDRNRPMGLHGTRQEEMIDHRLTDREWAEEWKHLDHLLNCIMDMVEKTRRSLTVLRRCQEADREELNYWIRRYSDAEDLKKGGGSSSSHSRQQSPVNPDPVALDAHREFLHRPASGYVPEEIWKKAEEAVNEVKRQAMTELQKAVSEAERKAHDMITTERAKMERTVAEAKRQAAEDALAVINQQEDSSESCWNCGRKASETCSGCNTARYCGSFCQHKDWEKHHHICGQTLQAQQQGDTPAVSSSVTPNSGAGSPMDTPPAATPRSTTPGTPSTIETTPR
B6: Speckle-type POZ protein (Homo sapiens), O43791 (parent)
chain: B1 chain
partner: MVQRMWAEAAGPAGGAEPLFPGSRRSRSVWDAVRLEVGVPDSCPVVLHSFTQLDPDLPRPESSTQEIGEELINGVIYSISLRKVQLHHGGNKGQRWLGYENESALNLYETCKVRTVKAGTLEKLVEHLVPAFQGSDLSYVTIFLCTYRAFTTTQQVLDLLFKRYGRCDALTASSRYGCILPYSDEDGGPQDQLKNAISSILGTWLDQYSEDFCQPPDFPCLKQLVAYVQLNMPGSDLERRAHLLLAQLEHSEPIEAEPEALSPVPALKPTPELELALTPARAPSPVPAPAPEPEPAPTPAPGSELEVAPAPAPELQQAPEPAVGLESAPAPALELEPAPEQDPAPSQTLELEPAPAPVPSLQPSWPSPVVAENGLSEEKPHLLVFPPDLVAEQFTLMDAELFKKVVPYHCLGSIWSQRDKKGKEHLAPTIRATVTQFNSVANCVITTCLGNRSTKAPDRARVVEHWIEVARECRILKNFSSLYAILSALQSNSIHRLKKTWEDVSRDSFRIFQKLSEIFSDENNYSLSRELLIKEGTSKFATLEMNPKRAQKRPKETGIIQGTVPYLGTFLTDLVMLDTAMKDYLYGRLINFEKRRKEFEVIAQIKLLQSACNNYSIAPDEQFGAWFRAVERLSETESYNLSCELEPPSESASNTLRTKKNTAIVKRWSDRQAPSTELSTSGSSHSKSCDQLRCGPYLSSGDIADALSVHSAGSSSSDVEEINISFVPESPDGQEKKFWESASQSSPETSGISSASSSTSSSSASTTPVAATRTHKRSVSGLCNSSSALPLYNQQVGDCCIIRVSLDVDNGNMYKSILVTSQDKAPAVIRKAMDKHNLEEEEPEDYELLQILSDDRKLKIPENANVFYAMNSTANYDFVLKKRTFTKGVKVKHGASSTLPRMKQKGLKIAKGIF

The variants in one experiment derive from B1. As to conditions: with sir4_human SIRT4, Q9Y6E7.
With F102C, the “effect of a mutation on the interaction” value was “with no effect”.

The variants in a further experiment derive from B1. The note with it: with sir4_human SIRT4, Q9Y6E7. This is another data set of the same source.
As for Y87C, the “effect of a mutation on the interaction” value was “with no effect”.

The variants in a further experiment derive from B2. The note with it: with s4a5_human SLC4A5, Q9BY07.
In the case of Y87C, the “effect of a mutation on the interaction” value is reported as “with no effect”.

Variants of B2 are the subject of the next experiment. The note with it: with s4a5_human SLC4A5, Q9BY07. The source holds these as a separate data set.
With F133V, the “effect of a mutation on the interaction” value was “with no effect”.

In another experiment the parent is B2. The note with it: with s4a5_human SLC4A5, Q9BY07. This is another data set of the same source.
For F133L, the “effect of a mutation on the interaction” value is given as “with no effect”.

Another experiment covers variants of B2. As to conditions: with s4a5_human SLC4A5, Q9BY07. This is another data set of the same source.
For the variant F102C, the “effect of a mutation on the interaction” value was “with no effect”.

In a further experiment the parent is B3. As to conditions: with mk15_human MAPK15, Q8TD08.
For Y87C, the “effect of a mutation on the interaction” value is “with no effect”.

In the next experiment the parent is B3. As to conditions: with mk15_human MAPK15, Q8TD08. The source holds these as a separate data set.
Take F102C: the “effect of a mutation on the interaction” value is recorded as “with no effect”.

Another experiment covers variants of B3. The note with it: with mk15_human MAPK15, Q8TD08. This is another data set of the same source.
F133L: the “effect of a mutation on the interaction” value is given as “with no effect”.

In another experiment the parent is B3. As to conditions: with mk15_human MAPK15, Q8TD08. This is another data set of the same source.
As to F133V, the “effect of a mutation on the interaction” value is given as “with no effect”.

The variants in another experiment derive from B4. As to conditions: with mre11_human MRE11, P49959.
As to F102C, the “effect of a mutation on the interaction” value was “with no effect”.

In the next experiment the parent is B4. As to conditions: with mre11_human MRE11, P49959. This is another data set of the same source.
For the variant Y87C, the “effect of a mutation on the interaction” value is “with no effect”.

A further experiment covers variants of B4. The note with it: with mre11_human MRE11, P49959. The source holds these as a separate data set.
With F133V, the “effect of a mutation on the interaction” value is listed as “with no effect”.

Variants of B4 are the subject of the next experiment. The note with it: with mre11_human MRE11, P49959. This is another data set of the same source.
Consider F133L, for which the “effect of a mutation on the interaction” value is on record as “with no effect”.

In a further experiment the parent is B5. As to conditions: with mtg8_human RUNX1T1, Q06455.
For F133L, the “effect of a mutation on the interaction” value was “with no effect”.

The variants in another experiment derive from B5. The note with it: with mtg8_human RUNX1T1, Q06455. This is another data set of the same source.
F133L: the “effect of a mutation on the interaction” value is listed as “disrupting interaction strength”.

Take F133V: the “effect of a mutation on the interaction” value is reported as “disrupting interaction strength”.

As for F102C, the “effect of a mutation on the interaction” value is given as “disrupting interaction strength”.

As to Y87C, the “effect of a mutation on the interaction” value is recorded as “disrupting interaction strength”.

The next experiment covers variants of B5. The note with it: with mtg8_human RUNX1T1, Q06455. The source holds these as a separate data set.
For F133V, the “effect of a mutation on the interaction” value is given as “with no effect”.

Another experiment covers variants of B5. As to conditions: with mtg8_human RUNX1T1, Q06455. The source holds these as a separate data set.
In the case of F102C, the “effect of a mutation on the interaction” value is “with no effect”.

Variants of B5 are the subject of another experiment. The note with it: with mtg8_human RUNX1T1, Q06455. The source holds these as a separate data set.
Regarding Y87C, the “effect of a mutation on the interaction” value was “with no effect”.

In a further experiment the parent is B6. As to conditions: with gnds_human RALGDS.
As for F102C, the “effect of a mutation on the interaction” value is listed as “with no effect”.
